Reference: patent US20170260258A1 (GENEONE LIFE SCIENCE, published 2017)

Tests used:
[1] = biological target: T1, L1CAM on L1CAM-overexpressing human cholangiocarcinoma cells (SCK-L1) (UniProt P32004 20-1257); experiment: flow cytometry
T1 construct: whole, on cells; also called L1 cell adhesion molecule

[2] = biological target: T2, GST-pre-S1 (1st to 56th amino acids) protein (hepatitis B virus, UniProt P08515 1-218 = GST); experiment: BLI (Octet Red)
[3] = biological target: T2, GST-pre-S1 (1st to 56th amino acids) …; experiment: affinity determination (competitive ELISA / Octet Red; FIGS. 2 to 5 cited)
[4] = biological target: T2, GST-pre-S1 (1st to 56th amino acids) …; experiment: BLI (Octet Red), antibody captured on anti-human Fc tip, GST-pre-S1 in solution
Experimental: Thereafter, the biosensor tip was saturated with 2 μg/mL of the antibody for 10 minutes. […] The binding and separation rates were measured for 15 minutes and 30 minutes, respectively. In all the measurements, a baseline drift was corrected by subtracting a control sensor exposed to only a running buffer. The operating temperature was maintained at 30° C. The data was analyzed using a 1:1 interaction model (fitting global, Rmax unlinked by sensor) equipped with ForteBio data analysis software 7.0.

T2 sequence (P08515 whole entry): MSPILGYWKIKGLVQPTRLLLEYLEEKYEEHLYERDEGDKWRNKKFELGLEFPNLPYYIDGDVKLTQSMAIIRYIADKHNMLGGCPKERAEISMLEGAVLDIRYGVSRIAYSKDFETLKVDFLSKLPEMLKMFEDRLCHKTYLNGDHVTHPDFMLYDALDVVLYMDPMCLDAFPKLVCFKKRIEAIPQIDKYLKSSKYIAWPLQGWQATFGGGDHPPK
T1 sequence (P32004 20-1257 limits assumed): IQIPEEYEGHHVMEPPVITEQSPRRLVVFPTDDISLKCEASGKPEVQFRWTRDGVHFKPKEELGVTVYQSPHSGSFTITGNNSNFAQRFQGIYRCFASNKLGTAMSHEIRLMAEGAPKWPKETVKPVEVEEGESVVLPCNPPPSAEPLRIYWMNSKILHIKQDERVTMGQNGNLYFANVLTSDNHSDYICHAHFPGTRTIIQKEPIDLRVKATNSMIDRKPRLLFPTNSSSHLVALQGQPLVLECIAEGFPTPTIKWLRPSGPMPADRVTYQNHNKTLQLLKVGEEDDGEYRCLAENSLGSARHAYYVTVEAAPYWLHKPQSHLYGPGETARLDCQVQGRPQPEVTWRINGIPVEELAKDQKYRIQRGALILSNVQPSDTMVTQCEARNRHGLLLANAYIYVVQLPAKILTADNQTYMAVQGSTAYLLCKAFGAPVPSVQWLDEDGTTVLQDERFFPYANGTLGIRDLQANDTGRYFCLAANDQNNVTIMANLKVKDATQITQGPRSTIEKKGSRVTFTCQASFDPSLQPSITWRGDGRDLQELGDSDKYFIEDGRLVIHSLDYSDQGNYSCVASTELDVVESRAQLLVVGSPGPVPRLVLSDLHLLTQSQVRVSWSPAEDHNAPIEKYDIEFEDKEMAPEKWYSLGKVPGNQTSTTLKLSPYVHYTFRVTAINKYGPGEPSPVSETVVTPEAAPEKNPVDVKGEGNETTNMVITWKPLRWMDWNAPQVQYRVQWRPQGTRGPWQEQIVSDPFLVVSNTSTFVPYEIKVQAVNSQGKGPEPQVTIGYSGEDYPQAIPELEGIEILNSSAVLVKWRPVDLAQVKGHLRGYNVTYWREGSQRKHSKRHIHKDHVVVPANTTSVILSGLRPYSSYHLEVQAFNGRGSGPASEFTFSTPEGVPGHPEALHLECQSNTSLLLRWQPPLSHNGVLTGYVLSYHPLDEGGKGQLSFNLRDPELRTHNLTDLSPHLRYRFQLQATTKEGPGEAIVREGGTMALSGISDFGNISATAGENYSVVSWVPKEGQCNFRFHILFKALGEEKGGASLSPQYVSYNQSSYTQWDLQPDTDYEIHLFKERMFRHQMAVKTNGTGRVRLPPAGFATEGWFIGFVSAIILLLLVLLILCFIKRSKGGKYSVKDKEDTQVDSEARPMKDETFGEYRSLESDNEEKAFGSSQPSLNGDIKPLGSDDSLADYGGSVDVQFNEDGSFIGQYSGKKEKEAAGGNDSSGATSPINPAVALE

B1: humanized antibody HzKR127-3.2 (antibody, V domains shown)
VH: QVQLQQSGAEVKKPGASVKVSCKASGYTFTSSWMNWVRQAPGQGLEWMGRIYPGDGDTSYAQKFQGRVTMTADKSTSTVYMELSSLRSEDTAVYYCAREYAEAYWGQGTLVTVSS
VL: DIVMTQTPLSLSVTPGQPASISCKSSQSLLYSNGKTYLNWLLQKPGQPPQRLIYLVSNRDSGVPDRFSGSGSGTDFTLKISRVEAEDVGVYYCVQGTHFPQTFGGGTKVEIKR
Q: Does B1 bind [1]?
A: no binding (tested: 1 µg of the antibody in 100 µL)

Q: And the “fold higher affinity than HzKR127-3.1” value [2]?
A: 1.6 fold

Q: What about the “fold higher affinity than KR127” value [3] of the same binder?
A: 2.5 fold

Q: What about the Kd [4] of the same binder?
A: 493 pM

Q: And the koff [4]?
A: 5.32e-05 s⁻¹

Q: And the kon [4]?
A: 108000 M⁻¹ s⁻¹
